# According to patent publication US10100114B2, “Antibodies specific for TROP-2 and their uses” (RINAT NEUROSCIENCE CORP., priority 2011, dated 2018):
# Numbering of substitutions follows the chain as printed. In names and notes the source's numbering stands.
# T1: human Trop-2-hFc (Homo sapiens, UniProt P09758)
# T1 construct: Monomeric Trop-2 extracellular domain prepared from papain digestion of Trop-2-Fc fusion protein
# T1 sequence (P09758 27-274 limits assumed): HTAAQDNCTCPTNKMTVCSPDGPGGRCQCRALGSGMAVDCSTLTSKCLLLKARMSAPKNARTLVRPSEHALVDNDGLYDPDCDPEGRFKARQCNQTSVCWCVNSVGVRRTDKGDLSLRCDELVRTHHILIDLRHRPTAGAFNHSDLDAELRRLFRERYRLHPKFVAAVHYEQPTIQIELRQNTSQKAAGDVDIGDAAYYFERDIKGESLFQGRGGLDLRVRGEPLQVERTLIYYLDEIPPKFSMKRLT
# T2: Human Trop-2-mFc (Homo sapiens, UniProt P09758)
# T2 construct: Monomeric Trop-2 extracellular domain prepared from papain digestion of Trop-2-Fc fusion protein
# T2 sequence (P09758 27-274 limits assumed): T1 sequence (P09758 27-274 limits assumed)
# B1: h7E6_SVGL: humanized anti-Trop-2 antibody, VL SEQ ID NO: 6, VH SEQ ID NO: 5 (antibody, V domains shown)
# VH: QVQLQESGPGLVKPSETLSLTCTVSGGSISSYGVHWIRQPPGKGLEWIGVIWTSGVTDYNSALMGRVTISVDTSKNQFSLKLSSVTAADTAVYYCARDGDYDRYTMDYWGQGTLVTVSS
# VL: DIVMTQSPDSLAVSLGERATINCRASKSVSTSLYSYMHWYQQKPGQPPKLLIYLASNLESGVPDRFSGSGSGTDFTLTISSLQAEDVAVYYCQHSRELPYTFGQGTKLEIK
# B2: h7E6: humanized anti-Trop-2 antibody, VL SEQ ID NO: 3, VH SEQ ID NO: 4 (antibody, V domains shown)
# VH: B1 VH with S54G, V56S, G65S
# VL: B1 VL with L33G
# B3: h7E6_L: humanized anti-Trop-2 antibody comprising SEQ ID NOs: 4 and 6 (antibody, V domains shown)
# VH: B1 VH with S54G, V56S, G65S
# VL: B1 VL
# B4: h7E6SVG-LCQ04/K222R-vc0101: h7E6SVG K222R with light chain LCQ04 tag conjugated with AcLys-vc-PABC-0101 (conjugate)
# VH: B1 VH
# VL: B1 VL with L33G
# B5: h7E6_SVGN: humanized anti-Trop-2 antibody, VL SEQ ID NO: 7, VH SEQ ID NO: 5 (antibody, V domains shown)
# VH: B1 VH
# VL: B1 VL with L33N
# B6: h7E6_N: humanized anti-Trop-2 7E6 antibody, presumably VH SEQ ID NO: 4 with VL_N SEQ ID NO: 7 (antibody, V domains shown)
# VH: B1 VH with S54G, V56S, G65S
# VL: B1 VL with L33N
# B7: h6G11: humanized anti-Trop-2 antibody, VL SEQ ID NO: 10, VH SEQ ID NO: 11 (antibody, V domains shown)
# VH: QVQLVQSGAEVKKPGASVKVSCKASGYTFTSYWINWVRQAPGQGLEWMGNIYPSDSYSNYNQKFKDRVTMTRDTSTSTVYMELSSLRSEDTAVYYCARGSSFDYWGQGTLVTVSS
# VL: EIVLTQSPATLSLSPGERATLSCRASQTIGTSIHWYQQKPGQAPRLLIYYASESISGIPARFSGSGSGTDFTLTISSLEPEDFAVYYCQQSNSWPFTFGQGTKLEIK
# B8: h6G11_FKG_SF: humanized anti-Trop-2 antibody, VL SEQ ID NO: 12, VH SEQ ID NO: 13 (antibody, V domains shown)
# VH: B7 VH with Y52F, Q62K, S101G
# VL: B7 VL with Q89S, N92F
# B9: h7E6-N-TG1-vcMMAD: h7E6_N hIgG1 with TG1 tag conjugated with AcLys-vcMMAD (conjugate)
# VH: B1 VH with S54G, V56S, G65S
# VL: B1 VL with L33N
# B10: h7E6-SVGN-TG1-vcMMAD: h7E6_SVGN hIgG1 with TG1 tag conjugated with AcLys-vcMMAD (conjugate)
# VH: B1 VH
# VL: B1 VL with L33N
# B11: h7E6-L-TG1-vcMMAD: h7E6_L hIgG1 with TG1 tag conjugated with AcLys-vcMMAD (conjugate)
# VH: B1 VH with S54G, V56S, G65S
# VL: B1 VL
# B12: h7E6-SVGL-TG1-vcMMAD: h7E6_SVGL hIgG1 with TG1 tag conjugated with AcLys-vcMMAD (conjugate)
# VH: B1 VH
# VL: B1 VL
# B13: h7E6-WT-TG1-vcMMAD: h7E6-WT hIgG1 with TG1 tag conjugated with AcLys-vcMMAD (conjugate)
# VH: B1 VH with S54G, V56S, G65S
# VL: B1 VL with L33G
# Molecular target: T1, human Trop-2-hFc
# Test: Biacore SPR affinity of chimeric and humanized 7E6 Fab, human Trop-2
# Type: binding
# Conditions: recombinant Fab fragments injected over captured human Trop-2-hFc
# Source text: (§1) The human Trop-2-hFc or cynomolgus monkey Trop-2-hFc proteins were captured on the CM5 EDA chip 37 sensor surface coupled with anti-human Fc.
Molecule,ka,kd
B1,131000 M⁻¹ s⁻¹,3.27e-05 s⁻¹
B2,139000 M⁻¹ s⁻¹,0.00294 s⁻¹
B3,130000 M⁻¹ s⁻¹,0.00015 s⁻¹

# Test system: BxPC3 xenograft
# Test: In vivo efficacy of humanized Trop-2 ADCs, pancreatic tumor BxPC3 xenograft model
# Design: species or system CB17/SCID mice
# Conditions: single dose, tail vein; FIGS. 9A-9C
# Procedure: In vivo efficacy studies of Trop-2 ADCs were performed with target-expressing BxPC3 xenograft model. Two million BxPC3 pancreatic cancer cells were implanted subcutaneously into 5-8 weeks old CB17/SCID mice until the tumor sizes reached between 300-400 mm^3. […] Tumor volume was measured once a week by a Caliper device and calculated with the following formula: Tumor volume=(length×width^2)/2. Studies were terminated before their tumor volumes reached 2000 mm^3.
row,Molecule,"tumor response, BxPC3 xenograft"
1,B4,tumor regression

# Test system: cynomolgus monkey Trop-2-hFc
# Test: Biacore SPR affinity of chimeric and humanized 7E6 Fab, cynomolgus Trop-2
# Type: binding
# Conditions: recombinant Fab fragments injected over captured cynomolgus monkey Trop-2-hFc
# Source text: as §1
Molecule,ka,kd
B1,130000 M⁻¹ s⁻¹,7.42e-05 s⁻¹
B2,144000 M⁻¹ s⁻¹,0.00635 s⁻¹
B3,126000 M⁻¹ s⁻¹,0.000335 s⁻¹

# Test system: SW620 (Trop-2 −) cells
# Test: Flow cytometry binding, SW620 cells
# Type: cell-based
# Conditions: Table 10, 300,000 cells, 1 ug antibody
# Procedure: For A431 cell staining, 200,000 cells were incubated with 0.5 ug antibody in 100 uL binding buffer (PBS (Phosphate Buffered Saline)+0.5% BSA (Bovine Serum Albumin)), followed by incubation with Dylight488-conjugated goat anti-human (Fab′)2-specific secondary antibody from Jackson immunoresearch Laboratories (West Grove, Pa.). For Colo205 and SW620 cells, 300,000 cells were used with 1 ug of primary antibody, followed by AlexaFluor 647 anti-human (Fab′)2-specific secondary antibody from Jackson immunoresearch Laboratories (West Grove, Pa.).
# Similar to Example 7a), binding of chimeric mouse and humanized anti-Trop-2 6G11 antibodies (expressed in human IgG1 subtype) were assessed on Trop-2 expressing (A431 and Colo205) and non-expressing (SW620) cells by flow cytometry. 300,000 cells were used with 1 ug of primary antibody, followed by AlexaFluor 647 anti-human (Fab′)2-specific secondary antibody.
Molecule,% positive,MFI
B5,2.5%,140
B1,2.6%,135
B6,2.3%,151
B2,2.1%,143
B3,2.5%,158

# Same assay, conditions: Table 11, 300,000 cells, 1 ug antibody
Molecule,% positive,MFI
B7,3.9%,154
B8,2.5%,157

# Test system: SW620 cells (Trop-2 non-expressing)
# Test: Cytotoxicity of ADCs (CellTiter-Glo), SW620
# Type: cell-based
# Conditions: Table 12; SW620 (Trop-2−); 96 hours after treatment
# Procedure: Target expressing (A431, BxPC3, CAPAN-2 and Colo205) or non-expressing (SW620) cells were seeded on white walled clear bottom plates at 2000 cells/well for 24 hours before treatment. Cells were treated with 4 fold serially diluted antibody-drug conjugates in triplicates. Cell viability was determined by CellTiter-Glo® Luminescent Cell Viability Assay 96 (Promega, Madison Wis.) 96 hours after treatment. Relative cell viability was determined as percentage of untreated control. IC50 was calculated by Prism software.
# 2-methylalanyl-N-[(3R,4S,5S)-3-methoxy-1-{(2S)-2-[(1R,2R)-1-methoxy-2-methyl-3-oxo-3-{[(1S)-2-phenyl-1-(1,3-thiazol-2-yl)ethyl]amino}propyl]pyrrolidin-1-yl}-5-methyl-1-oxoheptan-4-yl]-N-methyl-L-valinamide is a novel auristatin, as described in U.S. Application Nos. 61/561,255 and 61/676,423. Method of conjugating Trop-2 antibodies using transglutaminase tags is described in Example 9. Target expressing or non-expressing (SW620) cells were seeded on white walled clear bottom plates at 2000 (A431, BxPC3, NCI-H292, NCI-H1650, MDA-MB-468 and SW620), 2500 (Calu-3) or 3000 (OVCAR3 and SKBR3) cells per well for 24 hours before treatment. Cells were treated with 4 fold serially diluted antibody-drug conjugates in triplicates. Cell viability was determined by CellTiter-Glo® Luminescent Cell Viability Assay 96 (Promega, Madison, Wis.) 96 hours after treatment. Relative cell viability was determined as percentage of untreated control. IC50 was calculated by GraphPad Prism 5 software and expressed as concentration (nM) of total Ab.
row,Molecule,Ab-IC50
1,B9,11.150 µg/mL
2,B10,10.410 µg/mL
3,B11,8.535 µg/mL
4,B12,10.800 µg/mL
5,B13,10.330 µg/mL

# Same assay, conditions: Table 12; SW620 (Trop-2−); 96 hours after treatment; read-out: Ab-IC50
row,Molecule,IC50
1,B9,74.3 nM
2,B10,69.4 nM
3,B11,56.9 nM
4,B12,72 nM
5,B13,68.9 nM

# Same assay, conditions: Table 13; SW620, Trop2 expression −; 96 hours; concentration of total Ab
row,Molecule,IC50
1,B4,> 267 nM

# Molecular target: T2, Human Trop-2-mFc
# Test: Biacore SPR affinity of humanized 6G11 Fab
# Type: binding
# Conditions: Fab fragments injected over captured human Trop-2-mFc
# Procedure: The affinities of humanized 6G11 antibodies were measured on a surface plasmon resonance Biacore™ 2000 biosensor equipped with a research-grade CM5 sensor chip (Biacore™ AB, Uppsala, Sweden—now GE Healthcare). Human Trop-2-mFc protein was captured on the CM5 chip coupled with anti-mouse Fc. Human 6G11_WT or Human 6G11_FKG_SF chimeric Fab fragments were injected as 3 fold dilution series.
Molecule,ka,kd
B7,360000 M⁻¹ s⁻¹,0.0096 s⁻¹
B8,640000 M⁻¹ s⁻¹,0.00038 s⁻¹
